The target of this experiment is NusA (E. coli (endogenous in MG1655)) (UniProt P0AFF6). The experiment is described as follows: single-molecule tracking in live cells; HaloTag fusions labelled with JFX549 in growing E. coli at 37 °C; 5 ms camera exposure; HMM fit of diffusion trajectories, 5-state models coarse-grained with a threshold at 1 µm^2/s (slow diffusion state = bound).

The text below walks through data of PMC12297416.

Consider “IF2-Domain-I-HaloTag (domain or fragment)”, for which the dwell time in the slow-diffusion state is 30 ms, the occupancy in the slow state (after cell sorting by size) was found to be 11% and the steady-state fraction in the slow-diffusion state was 14%.
